Source: PMC7076015 (2020)

Target: MBP-KPNA7(P339A) (human, UniProt A9QM74 1-516, P339A)

Kd: ~0.157 µM
Binder: RGGNVGGKRKADGYNQPDSKRRQTN (domain or fragment) [GST-GFP-hnRNP R bipartite NLS]
